Reference: patent US10682427B2, “Intra-operative imaging” (BRACCO IMAGING S.P.A., priority 2014, dated 2020)
“And” between values parts separate entries of the source, which are not always exact repeats. Equal entries are not always repeated.

Columns and labels:
[1] = Normalized excitation and emission spectra; format: physicochemical
Source text: The normalized excitation and emission spectra of the NIR agent in PBS (ex/em: 674/694; Stokes Shift: 20 nm) and in SERONORM (human-based control serum) (694/704, Stokes Shift 10 nm) are shown in FIG. 2. As shown in the figure, the interaction of the DA364 contrast agent with serum albumin promotes the shift of the emission maximum from 694 nm to 704 nm (in PBS and in SERONORM (human-based control serum) respectively) and also the reduction of the Stokes shift.

αvβ5 integrin = αvβ5 integrin (Homo sapiens, UniProt P06756+P18084); test: In vitro competitive binding assay with biotinylated vitronectin; conditions: competitor biotinylated vitronectin 1 μg/mL, read-out: IC50 (vitronectine IC50)
Procedure: (§1) The affinity of DA364 for its specific targeted (the integrin αvβ3) and its crossreactivity for other integrins (e.g. αvβ1, αvβ5) was assessed by in vitro binding tests.
(§2) A 96-well microtiter plate (MediSorp, Nunc) was coated overnight at 4° C., with tested integrins (0.5 μg/mL, diluted in coating/washing buffer (20 mM Tris HCl pH 7.4; 150 mM NaCl; 1 mM MnCl2; 0.5 mM MgCl2; 2 mM CaCl2). After coating, the plate is rinsed with washing buffer and then incubated in blocking buffer (3% BSA in coating buffer) for 2 h at room temperature (RT) (24° C. in Thermomixer, under shaking). The plate was then rinsed in washing buffer and incubated at RT for 3 h with DA364 (concentration range from 5000 to 0.005 nM). DA364 solutions were prepared by serially diluting a stock solution of the NIR agent in 1% BSA in coating buffer in presence of biotinylated vitronectin (1 μg/mL, cod. HVN-U605, Molecular Innovations). The plate is then rinsed again and incubated with Streptavidin-HRP (cod.EG RPN 1051, GE Healthcare) (1:10000 in PBS) 1 h at RT, binding the biotinylated vitronectin. After additional washes in PBS, the plate was incubated with TMB solution (3,3′,5,5′-tetramethylbenzidine) (cod.T-0440, Sigma-Aldrich) for 5-10 min and the colorimetric reaction was then stopped by addition of 2 N sulfuric acid. The quantification of the IC50 for DA364 was performed by measuring the competitor (biotinylated vitronectin) by reading the absorbance at 450 nm. IC50 values were determined by least-square non-linear regression analysis.

αvβ1 integrin = αvβ1 integrin (Homo sapiens, UniProt P05556+P06756); test: as above; conditions: competitor biotinylated vitronectin 1 μg/mL, read-out: IC50 (vitronectine IC50)
Procedure: as §1, §2

αvβ3 integrin = αvβ3 integrin (Homo sapiens, UniProt P05106+P06756); test: as above; conditions: competitor biotinylated vitronectin 1 μg/mL, average value from a triplicate test, read-out: IC50 (vitronectine IC50)
Procedure: as §1, §2

[2] = target: Human Serum Albumin (HSA) (Homo sapiens, UniProt P02768); test: In vitro binding assay towards human serum albumin (absorbance at 689 nm)
[3] = Ex vivo fluorescent signal in excised organs (IVIS Spectrum); design: species or system mice; conditions: 48 hours after 1 nmol i.v.
Procedure: Three weeks after A431 tumor implantation five mice were administered with 1 nmol of DA364 for a total administration volume of 0.2 mL (inj. rate 1 mL/min). In vivo OI acquisitions have been carried out 5 min, 15 min, 30 min, 1 h, 2 h, 3 h, 4 h, 6 h, 24 h and 48 hours after intravenous administration of the fluorescent probe using the IVIS Spectrum optical imaging system (Perkin Elmer). During OI experiments animals were kept under 3-4% Sevofluorane gas anaesthesia (O2 97.0-96.0%). During anaesthesia animals body temperature has been stabilized at about 37° C. using a heated bed.
Following in vivo OI experiments, 48 hours after probes injection, animals were sacrificed. Tumors, liver, kidneys, heart and spleen were excised for ex vivo fluorescent signal measure on the whole excised tumor or organ.
The fluorescent signal (expressed as Radiant Efficiency (RE): p/s/(μW/cm^2), where p is the photon count), was then measured on the excised ex vivo samples using the IVIS Spectrum optical imaging system (Perkin Elmer).

[4] = Determination of the molar extinction coefficient (UV-VIS absorbance, linear regression); format: physicochemical; conditions: in PBS
Procedure: Two standard stock solutions containing the NIR agent in PBS at 1000 μM (sol I: 1.27 mg, 0.884 mL) and 1250 μM (sol II: 7.03 mg, 3.915 mL) were prepared. Diluted standard solutions were then prepared as reported in Table A by diluting the stock solutions in an appropriate volumetric flask using PBS. The absorbance of each standard diluted solution was measured without any further dilution.
The absorbance of each diluted standard solutions was measured and the molar extinction coefficient of DA364 was calculated from the slope of the linear regression reported in FIG. 1. The measured extinction coefficient in this condition was 208500 M^−1·cm^−1 (corresponding to 83% of the theoretical value reported for Cy5.5 dye: 250000 M^−1·cm^−1).

[5] = Fluorescence quantum yield with integrating sphere; format: physicochemical; conditions: excitation 625 nm, 15 min at RT
Procedure: Fluorescence quantum yields (0%) measurements were performed on FluoroLog-31IHR-320 (HORIBA-JobinYvon) with integrating sphere accessory.
The measurements were carried out using an excitation wavelength of 625 nm and using a 450W Xenon Light Source. Detection was performed on TBX-04 detector from 645 to 850 nm (excitation and emission slit were 1.8 nm).
The fluorescence quantum yield of DA364 solution was measured both in human serum SERONORM (human-based control serum), NycomedPhama, batch 1109514) and in Phosphate Buffer Saline (PBS).
Solutions of the NIR agent were prepared in PBS and in human serum with absorbance lower than 0.1. Fluorescence (0%) measurements were carried out after incubation of the NIR agent at Room Temperature (RT) for 15 min.

[6] = SERONORM (human-based control serum)

CC[N+]1=C(/C=C/C=C/C=C2/N(CCCCCC(=O)NC[C@@H]3C[C@@H]4CC[C@H]5C(=O)N[C@@H](CCCNC(=N)N)C(=O)NCC(=O)N[C@@H](CC(=O)O)C(=O)N[C@H]3C(=O)N45)c3ccc4c(S(=O)(=O)O)cc(S(=O)(=O)O)cc4c3C2(C)C)C(C)(C)c2c1ccc1c(S(=O)(=O)[O-])cc(S(=O)(=O)O)cc21 [DA364]
Stokes Shift ([1]; PBS): 20 nm | emission maximum (em) ([1]; PBS): 694 nm | excitation maximum (ex) ([1]; PBS): 674 nm | Stokes Shift [1, 6]: 10 nm | emission maximum (em) [1, 6]: 704 nm | excitation maximum (ex) [1, 6]: 694 nm | IC50 (αvβ5 integrin): 281 nM | IC50 (αvβ1 integrin): 28 nM | IC50 (αvβ3 integrin): 3.76 nM | Kd [2]: 34900 nM | association constant with HSA (ka) ([2]; PBS, 1 h at room temperature): 28670 ± 1140 M⁻¹ | Fluorescence Signal (Radiant Efficiency) ([3]; excised heart ex vivo): 4.61E+07 p/s/(μW/cm^2) | Fluorescence Signal (Radiant Efficiency) ([3]; excised kidney ex vivo): 3.55E+08 p/s/(μW/cm^2) | Fluorescence Signal (Radiant Efficiency) ([3]; excised liver ex vivo): 4.04E+08 p/s/(μW/cm^2) | Fluorescence Signal (Radiant Efficiency) ([3]; excised spleen ex vivo): 5.79E+07 p/s/(μW/cm^2) | extinction coefficient as percent of the theoretical value reported for Cy5.5 dye [4]: 83% | molar extinction coefficient [4]: 208500 M⁻¹ cm⁻¹ | Φ% (fluorescence quantum yield) ([5]; PBS): 36.5% and 36.5 (SD 2.37) % | Φ% (fluorescence quantum yield) [5, 6]: 57.5% and 57.5 (SD 1.26) %
